# Measured values: patent US20250339569A1 (3B PHARMACEUTICALS, published 2025)
# Starred links: 1 amine or outer side, 2 acyl side, 3 side chain; linkers in the order of their positions; H or OH if unused. Positions of bridges follow the written chain, without caps; N, C: chain ends. Non-standard residues stand in square brackets, D forms with d. Groups on a side chain read outwards from the residue. Primed or numbered codes have the meaning given here. No end group written: not given here. ξ: configuration not given here. *: point of attachment. DOTA(In) = O=C1CN2CCN3CCN(CC(=O)*)CCN(CC2)CC(=O)[O][In]([O]1)[O]C(=O)C3; APAc″ = 2-(4-(amino)piperidin-1-yl)acetic acid, NC1CCN(CC(=O)*)CC1; DOTA = O=C(O)CN1CCN(CC(=O)O)CCN(CC(=O)*)CCN(CC(=O)O)CC1; Trp(5-Cl) = N[C@@H](Cc1c[nH]c2ccc(Cl)cc12)C(=O)O; Phe(3,4-Cl2) = N[C@@H](Cc1ccc(Cl)c(Cl)c1)C(=O)O; Phe(3-CF3) = N[C@@H](Cc1cccc(C(F)(F)F)c1)C(=O)O; ξTrp(1-Me) = Cn1cc(CC(N)C(=O)O)c2ccccc21; Ttds(3) = NCCCOCCOCCOCCCNC(=O)CCC(=O)*; dmo = (R)-dimethylornithine (D form); mXylylene = c1cc(C[*:1])cc(C[*:2])c1; Orn(Me2) = CN(C)CCC[C@H](N)C(=O)O; Isovaleryl = CC(C)CC(=O)*; dPip = O=C(O)[C@H]1CCCCN1; hSer = N[C@@H](CCO)C(=O)O; AGLU′ = not defined here; Ac6c = NC1(C(=O)O)CCCCC1; Nle = CCCC[C@H](N)C(=O)O; dNMeA = CN[C@H](C)C(=O)O; 4Amc = not defined here; APAc = not defined here; Apr = not defined here; AEEA = NCCOCCOCC(=O)O; Sar = CNCC(=O)O
# Tests used:
# [1] = target: T1, Fc-fusion protein of human carbonic anhydrase IX (human, UniProt Q16790 38-414); assay: SPR, captured hCAIX-Fc; t1/2 category B: 5.1-15.0 min
# Protocol: (§1) Stock solutions of test compounds were prepared by dissolving each compound in DMSO. DMSO stock solution were diluted 1:1000 in Running Buffer without DMSO. […] SPR binding analyses were performed in Single Cycle Kinetic (SCK) mode at 25° C.
# (§2) For each test compound, SPR raw data in the form of resonance units (RU) were plotted as sensorgrams using the Biacore™ T200 control software. The signal from the blank sensorgram was subtracted from that of the test compound sensorgram (blank corrected). The blank corrected sensorgram was corrected for baseline drift by subtracting the sensorgram of a SCK run without the test compound (running buffer only). […] Raw data and fit results were imported as text files in IDBS. The pKD value (negative decadic logarithm of dissociation constant) was calculated in the IDBS excel template.
# [2] = target: T1, Fc-fusion protein of human carbonic …; assay: SPR, captured hCAIX-Fc; pKD category A: >8.0
# Protocol: as §1, §2
Binder,"t1/2 (half-life of the complex, SPR) [1] [min]",pKD [2] [pkd]
"{DOTA-APAc}-VYCE[dP]D[Phe(3,4-Cl2)]LTWSC-NH2 (linker 3-12 via mXylylene; not fully specified; reading uncertain) [3BP-4133]",5.1 to 15,> 8
{DOTA-APAc}-VYC[Orn(Me2)][dP]DWLTWSC-NH2 (linker 3-12 via mXylylene; reading uncertain) [3BP-4096],5.1 to 15,> 8
Ac-K(DOTA)VYCE[dP]DWLTWSC-NH2 (linker 4-13 via 3MeBn) [3BP-3840],5.1 to 15,> 8
Ac-VYCE[dPip]DWLTWAC-NH2 (linker 3-12 via mXylylene; SMILES CC(=O)N[C@H](C(=O)N[C@@H](Cc1ccc(O)cc1)C(=O)N[C@H]1CSCc2cccc(c2)CSC[C@@H](C(N)=O)NC(=O)[C@H](C)NC(=O)[C@H](Cc2c[nH]c3ccccc23)NC(=O)[C@H]([C@@H](C)O)NC(=O)[C@H](CC(C)C)NC(=O)[C@H](Cc2c[nH]c3ccccc23)NC(=O)[C@H](CC(=O)O)NC(=O)[C@H]2CCCCN2C(=O)[C@H](CCC(=O)O)NC1=O)C(C)C) [3BP-3283],5.1 to 15,> 8
{DOTA(In)}-YCE[dP]KWLEWSC-NH2 (linker 2-11 via mXylylene; lactam 5-8; also: indium complexed by DOTA) [3BP-4053],5.1 to 15,> 8
Ac-VYCE[dA]DWLTWAC-NH2 (linker 3-12 via mXylylene; SMILES CC(=O)N[C@H](C(=O)N[C@@H](Cc1ccc(O)cc1)C(=O)N[C@H]1CSCc2cccc(c2)CSC[C@@H](C(N)=O)NC(=O)[C@H](C)NC(=O)[C@H](Cc2c[nH]c3ccccc23)NC(=O)[C@H]([C@@H](C)O)NC(=O)[C@H](CC(C)C)NC(=O)[C@H](Cc2c[nH]c3ccccc23)NC(=O)[C@H](CC(=O)O)NC(=O)[C@@H](C)NC(=O)[C@H](CCC(=O)O)NC1=O)C(C)C) [3BP-3280],5.1 to 15,> 8
{DOTA-APAc}-VSCE[dP]DWLTWSC-NH2 (linker 3-12 via mXylylene; reading uncertain) [3BP-4105],5.1 to 15,> 8
{DOTA-APAc}-VE(AGLU′)CE[dP]DWLTWSC-NH2 (linker 3-12 via mXylylene; reading uncertain) [3BP-4112],5.1 to 15,> 8
{DOTA-APAc}-VYCE[dE](AGLU′)DWLTWSC-NH2 (linker 3-12 via mXylylene; reading uncertain) [3BP-4119],5.1 to 15,> 8
Ac-VRCE[dP]DWLTWE([Apr-AEEA-DOTA])C-NH2 (linker 3-12 via 3MeBn; reading uncertain) [3BP-3734],5.1 to 15,> 8
{DOTA-APAc}-VYCE[dP]DWLTWRC-NH2 (linker 3-12 via mXylylene; reading uncertain) [3BP-3599],5.1 to 15,> 8
Ac-VFCE[dP]DWLTWE([Apr-DOTA])C-NH2 (linker 3-12 via mXylylene; reading uncertain) [3BP-3874],5.1 to 15,> 8
{DOTA-APAc}-VYCQ[dP]DWLTWSC-NH2 (linker 3-12 via mXylylene; reading uncertain) [3BP-4104],5.1 to 15,> 8
VYCEGDWLTWQC-NH2 (linker 3-12 via mXylylene; not fully specified (N-terminus); also: indium complexed by DOTA) [3BP-3328],5.1 to 15,> 8
Ac-SYCE[dP]DWLTWE([Apr-AEEA-DOTA])C-NH2 (linker 3-12 via 3MeBn; reading uncertain) [3BP-3732],5.1 to 15,> 8
Ac-SYCE[dP]DWLTWE([Apr-DOTA])C-NH2 (linker 3-12 via mXylylene; reading uncertain) [3BP-3873],5.1 to 15,> 8
Ac-VYCE[Sar]D[Trp(5-Cl)]LTWQC-NH2 (linker 3-12 via mXylylene; SMILES CC(=O)N[C@H](C(=O)N[C@@H](Cc1ccc(O)cc1)C(=O)N[C@H]1CSCc2cccc(c2)CSC[C@@H](C(N)=O)NC(=O)[C@H](CCC(N)=O)NC(=O)[C@H](Cc2c[nH]c3ccccc23)NC(=O)[C@H]([C@@H](C)O)NC(=O)[C@H](CC(C)C)NC(=O)[C@H](Cc2c[nH]c3ccc(Cl)cc23)NC(=O)[C@H](CC(=O)O)NC(=O)CN(C)C(=O)[C@H](CCC(=O)O)NC1=O)C(C)C) [3BP-3289],5.1 to 15,> 8
{DOTA-APAc}-VYC[hSer][dP]DWLTWSC-NH2 (linker 3-12 via mXylylene; reading uncertain) [3BP-4101],5.1 to 15,> 8
{DOTA-Ttds(3)}-[Nle]YCE[dP]DWLTWSC-NH2 (linker 3-12 via mXylylene) [3BP-3870],5.1 to 15,> 8
{DOTA-APAc}-V[Orn(Me2)]CE[dP]DWLTWSC-NH2 (linker 3-12 via mXylylene; reading uncertain) [3BP-4095],5.1 to 15,> 8
{DOTA-APAc}-VYCE[dP]DW[Ac6c]TWSC-NH2 (linker 3-12 via mXylylene; reading uncertain) [3BP-3584],5.1 to 15,> 8
{DOTA-APAc}-VYCE[dP]D[Phe(3-CF3)]LTWSC-NH2 (linker 3-12 via mXylylene; not fully specified; reading uncertain) [3BP-4135],5.1 to 15,> 8
{DOTA-4Amc}-YCE[dP]DWLTWSC-NH2 (linker 2-11 via mXylylene; reading uncertain) [3BP-3868],5.1 to 15,> 8
{DOTA-APAc″}-VYCE[dP]D[ξTrp(1-Me)]LTWSC-NH2 (linker 3-12 via mXylylene; not fully specified) [3BP-4144],5.1 to 15,> 8
{DOTA}-YCE[dP]DWLTWSC-NH2 (linker 2-11 via mXylylene; SMILES CC(C)C[C@@H]1NC(=O)[C@H](Cc2c[nH]c3ccccc23)NC(=O)[C@H](CC(=O)O)NC(=O)[C@H]2CCCN2C(=O)[C@H](CCC(=O)O)NC(=O)[C@@H](NC(=O)[C@H](Cc2ccc(O)cc2)NC(=O)CN2CCN(CC(=O)O)CCN(CC(=O)O)CCN(CC(=O)O)CC2)CSCc2cccc(c2)CSC[C@@H](C(N)=O)NC(=O)[C@H](CO)NC(=O)[C@H](Cc2c[nH]c3ccccc23)NC(=O)[C@H]([C@@H](C)O)NC1=O) [3BP-3859],5.1 to 15,> 8
Isovaleryl-YCE[dP]DWLTWE([Apr-AEEA-DOTA])C-NH2 (linker 2-11 via 3MeBn; reading uncertain) [3BP-3740],5.1 to 15,> 8
Ac-VYCE[dNMeA]DWLTWAC-NH2 (linker 3-12 via mXylylene; SMILES CC(=O)N[C@H](C(=O)N[C@@H](Cc1ccc(O)cc1)C(=O)N[C@H]1CSCc2cccc(c2)CSC[C@@H](C(N)=O)NC(=O)[C@H](C)NC(=O)[C@H](Cc2c[nH]c3ccccc23)NC(=O)[C@H]([C@@H](C)O)NC(=O)[C@H](CC(C)C)NC(=O)[C@H](Cc2c[nH]c3ccccc23)NC(=O)[C@H](CC(=O)O)NC(=O)[C@@H](C)N(C)C(=O)[C@H](CCC(=O)O)NC1=O)C(C)C) [3BP-3281],5.1 to 15,> 8
{DOTA-APAc}-VYCE[dmo]DWLTWSC-NH2 (linker 3-12 via mXylylene; reading uncertain) [3BP-4097],5.1 to 15,> 8
